Data: paper PMC8590011, “WRN helicase safeguards deprotected replication forks in BRCA2-mutated cancer cells”

Molecular target: FLAG-WRN K577M/E84A (UniProt Q14191 1-1432, E84A;K577M)
Experiment: EMSA; 2 mM ATPgS, 5 mM MgCl2; affinity similar to WT; Kd is only in Supp Fig 1e, value not in material; 35 mM Tris-HCl pH 7.5, 20 mM KCl, 5 mM MgCl2, 0.1 mg/ml BSA, 2 mM DTT, 5% glycerol, 2 mM ATPgS, 2 nM DNA, 15 min at RT; 5% 1x TBE native PAGE at 4 C
Details: protein: recombinant; tags: N-terminal FLAG (6xHis removed with TEV); label: 5' 32P on oligo B (as described for the CF preparation); four-strand regressed fork: AB partial duplex annealed to CD partial duplex

Sequence of FLAG-WRN K577M/E84A (Q14191 whole entry E84A/K577M): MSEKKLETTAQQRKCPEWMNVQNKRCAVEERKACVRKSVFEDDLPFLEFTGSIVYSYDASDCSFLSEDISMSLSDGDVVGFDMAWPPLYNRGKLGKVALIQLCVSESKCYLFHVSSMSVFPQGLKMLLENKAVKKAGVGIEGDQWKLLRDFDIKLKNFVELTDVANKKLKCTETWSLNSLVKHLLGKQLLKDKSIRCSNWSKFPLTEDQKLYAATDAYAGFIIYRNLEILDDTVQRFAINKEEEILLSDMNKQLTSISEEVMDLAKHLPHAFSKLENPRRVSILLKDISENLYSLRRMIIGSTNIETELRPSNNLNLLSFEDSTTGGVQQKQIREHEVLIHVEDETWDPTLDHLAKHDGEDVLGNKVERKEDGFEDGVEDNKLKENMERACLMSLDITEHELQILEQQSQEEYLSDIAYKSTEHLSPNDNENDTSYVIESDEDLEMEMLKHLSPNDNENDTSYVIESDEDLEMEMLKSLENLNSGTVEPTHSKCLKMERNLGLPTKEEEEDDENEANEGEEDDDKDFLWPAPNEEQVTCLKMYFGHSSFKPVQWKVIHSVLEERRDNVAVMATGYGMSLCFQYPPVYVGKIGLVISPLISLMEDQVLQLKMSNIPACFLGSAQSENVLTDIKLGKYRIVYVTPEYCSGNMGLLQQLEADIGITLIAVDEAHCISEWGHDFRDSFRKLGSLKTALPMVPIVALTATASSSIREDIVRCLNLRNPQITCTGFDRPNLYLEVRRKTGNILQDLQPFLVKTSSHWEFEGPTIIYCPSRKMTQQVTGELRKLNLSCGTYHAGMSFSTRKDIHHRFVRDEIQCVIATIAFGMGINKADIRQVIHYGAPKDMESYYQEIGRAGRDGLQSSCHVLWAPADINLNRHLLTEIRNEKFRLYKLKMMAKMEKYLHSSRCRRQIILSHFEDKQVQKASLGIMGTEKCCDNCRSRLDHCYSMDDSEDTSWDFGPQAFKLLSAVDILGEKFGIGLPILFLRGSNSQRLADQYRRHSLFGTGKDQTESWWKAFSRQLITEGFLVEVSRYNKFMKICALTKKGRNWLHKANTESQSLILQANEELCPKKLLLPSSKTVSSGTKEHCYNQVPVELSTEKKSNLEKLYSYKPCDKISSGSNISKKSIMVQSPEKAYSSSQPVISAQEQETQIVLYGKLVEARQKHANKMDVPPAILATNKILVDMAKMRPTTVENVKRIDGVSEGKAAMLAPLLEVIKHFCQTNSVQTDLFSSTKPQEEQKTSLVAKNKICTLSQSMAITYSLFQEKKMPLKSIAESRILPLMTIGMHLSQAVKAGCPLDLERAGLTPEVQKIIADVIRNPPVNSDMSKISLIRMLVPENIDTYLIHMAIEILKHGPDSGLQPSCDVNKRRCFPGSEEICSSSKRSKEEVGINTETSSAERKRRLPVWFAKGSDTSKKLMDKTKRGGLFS

B1: chicken-foot (CF) reversed fork substrate, oligos A+B+C+D (structured_DNA)
DNA 1: CTTTAGCTGCATATTTACAACATGTTGACCTTCAGTACAATCTGCTCTGATGCCGCATAGTGTCATGCCAGAGCTTTGTAC
DNA 2: CGGGTGTCGGGGCGCATGACACTATGCGGCATCAGAGCAGATTGTACTGAAGGTCAACATGTTGTAAATATGCAGCTAAAG
DNA 3: GTACAAAGCTCTGGCATGATACTATGCGGCATCAGAGCAGATT
DNA 4: TCAGTACAATCTGCTCTGATGCCGCATAGTATCATGCGCCCCGACACCCG
modifications: iMe-isodC at position 38 of oligo A (written as C)
  binding result: binds
